Literature values as cited in publication PMC4492699.

Biological target: HER2 (Homo sapiens) (UniProt P04626)

For trastuzumab, the Kd is listed as 0.1 nM.
